Sequences and labels used below:
B1: Beta-arrestin-1 (Homo sapiens), P49407 (parent)
chain: MGDKGTRVFKKASPNGKLTVYLGKRDFVDHIDLVDPVDGVVLVDPEYLKERRVYVTLTCAFRYGREDLDVLGLTFRKDLFVANVQSFPPAPEDKKPLTRLQERLIKKLGEHAYPFTFEIPPNLPCSVTLQPGPEDTGKACGVDYEVKAFCAENLEEKIHKRNSVRLVIRKVQYAPERPGPQPTAETTRQFLMSDKPLHLEASLDKEIYYHGEPISVNVHVTNNTNKTVKKIKISVRQYADICLFNTAQYKCPVAMEEADDTVAPSSTFCKVYTLTPFLANNREKRGLALDGKLKHEDTNLASSTLLREGANREILGIIVSYKVKVKLVVSRGGLLGDLASSDVAVELPFTLMHPKPKEEPPHREVPENETPVDTNLIELDTNDDDIVFEDFARQRLKGMKDDKEEEEDGTGSPQLNNR

The record followed here is IntAct's records for PubMed 23353685.

In the experiment the parent is B1. As to conditions: with gnas1_human GNAS.
As to L33K, the “effect of a mutation on the interaction” value is “decreasing interaction”.
